Data taken from patent US5844099, “Cytokine antagonists” (Regeneron Pharmaceuticals, Inc., dated 1998).
Blank lines part the entries; values can stand above or below the molecule they belong to.

Tests used:
CNTFRα on EW-1 cells = experiment: two site fit of CNTF binding on EW-1 cells; low affinity site
[1] = molecular target: CNTFRα, gp130 and LIFRβ on EW-1 cells; experiment: two site fit of CNTF binding on EW-1 cells; high affinity site
recombinant human IL-6 [2] = molecular target: T1, recombinant human IL-6 (human, UniProt P05231)
human 125I-IL-6 (human) = human 125I-IL-6 (human) (UniProt P05231); experiment: dissociation of 20 pM 125I-IL-6 from 500 pM mAb B-E8 after adding 20 nM cold IL-6; precipitation with Protein G-Sepharose
recombinant human IL-6 [3] = molecular target: T1, recombinant human IL-6; experiment: cell-based or functional assay
CNTFRα on PC12D cells = molecular target: T2, CNTFRα on PC12D cells; experiment: Scatchard analysis of 125I-CNTF saturation binding on PC12D cells; low affinity site
T2 sequence (Q08406 23-342, looked up): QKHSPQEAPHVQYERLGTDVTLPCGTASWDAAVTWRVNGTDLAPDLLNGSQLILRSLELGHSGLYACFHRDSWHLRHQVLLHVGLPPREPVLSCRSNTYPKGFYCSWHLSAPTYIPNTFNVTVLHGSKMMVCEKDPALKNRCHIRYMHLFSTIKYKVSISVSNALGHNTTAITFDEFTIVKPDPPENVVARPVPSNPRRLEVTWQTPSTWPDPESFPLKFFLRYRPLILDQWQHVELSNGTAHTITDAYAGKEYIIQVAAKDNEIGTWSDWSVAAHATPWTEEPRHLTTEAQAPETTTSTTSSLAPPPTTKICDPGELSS

[4] = molecular target: T3, CNTFRα:β1 (CNTFRα and gp130) on PC12D cells; experiment: Scatchard analysis of 125I-CNTF saturation binding on PC12D cells; high affinity site
T3 sequence (Q08406 whole entry, looked up): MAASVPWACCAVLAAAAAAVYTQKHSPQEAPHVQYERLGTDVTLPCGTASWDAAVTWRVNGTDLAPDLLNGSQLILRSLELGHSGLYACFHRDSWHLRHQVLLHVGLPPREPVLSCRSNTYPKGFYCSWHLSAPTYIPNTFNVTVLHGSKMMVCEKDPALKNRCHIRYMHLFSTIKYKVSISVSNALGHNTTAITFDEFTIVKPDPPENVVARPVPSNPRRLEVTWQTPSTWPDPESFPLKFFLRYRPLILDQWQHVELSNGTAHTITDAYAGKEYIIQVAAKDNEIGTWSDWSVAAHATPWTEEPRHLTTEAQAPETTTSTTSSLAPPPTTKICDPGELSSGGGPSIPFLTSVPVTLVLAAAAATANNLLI
T3 sequence (P40190 whole entry, looked up): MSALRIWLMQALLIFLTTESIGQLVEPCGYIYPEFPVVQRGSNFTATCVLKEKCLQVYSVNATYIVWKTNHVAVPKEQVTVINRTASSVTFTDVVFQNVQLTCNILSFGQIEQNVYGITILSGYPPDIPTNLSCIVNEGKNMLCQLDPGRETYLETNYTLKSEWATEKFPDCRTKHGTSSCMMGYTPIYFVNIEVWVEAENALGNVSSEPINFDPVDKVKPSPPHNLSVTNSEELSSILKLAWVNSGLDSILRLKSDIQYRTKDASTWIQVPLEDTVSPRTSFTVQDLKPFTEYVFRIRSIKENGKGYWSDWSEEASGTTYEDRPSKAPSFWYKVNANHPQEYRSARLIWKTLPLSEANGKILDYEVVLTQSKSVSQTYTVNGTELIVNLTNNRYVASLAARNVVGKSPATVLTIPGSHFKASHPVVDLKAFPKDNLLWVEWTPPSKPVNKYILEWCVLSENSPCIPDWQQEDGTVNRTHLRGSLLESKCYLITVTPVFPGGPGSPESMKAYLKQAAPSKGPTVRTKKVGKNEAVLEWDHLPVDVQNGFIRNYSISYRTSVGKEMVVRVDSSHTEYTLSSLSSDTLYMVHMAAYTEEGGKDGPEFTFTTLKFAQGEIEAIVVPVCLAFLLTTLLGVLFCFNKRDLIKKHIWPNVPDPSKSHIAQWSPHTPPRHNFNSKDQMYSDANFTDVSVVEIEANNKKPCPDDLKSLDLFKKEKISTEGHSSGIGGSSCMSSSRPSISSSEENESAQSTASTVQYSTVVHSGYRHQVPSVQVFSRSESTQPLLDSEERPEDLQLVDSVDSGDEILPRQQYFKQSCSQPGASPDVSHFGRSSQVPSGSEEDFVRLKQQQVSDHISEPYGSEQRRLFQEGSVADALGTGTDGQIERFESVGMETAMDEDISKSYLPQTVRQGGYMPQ

B1: gp130-Fc homodimer (Fc fusion)
chain (part 1 of 2): ELLDPCGYISPESPVVQLHSNFTAVCVLKEKCMDYFHVNANYIVWKTNHFTIPKEQYTIINRTASSVTFTDIASLNIQLTCNILTFGQLEQNVYGITIISGLPPEKPKNLSCIVNEGKKMRCEWDGGRETHLETNFTLKSEWATHKFADCKAKRDTPTSCTVDYSTVYFVNIEVWVEAENALGKVTSDHINFDPVYKVKPNPPHNLSVINSEELSSILKLTWTNPSIKSVIILKYNIQYRTKDASTWSQIPPEDTASTRSSFTVQDLKPFTEYVFRIRCMKEDGKGYWSDWSEEASGITYEDRPSKAPSFWYKIDPSHTQGYRTVQLVWKTLPPFEANGKILDYEVTLTRWKSHLQNYTVNATKLTVNLTNDRYLATLTVRNLVGKSDAAVLTIPACDFQATHPVMDLKAFPKDNMLWVEWTTPRESVKKYILEWCVLSDKAPCITDWQQEDGTVHRTYLRGNLAESKCYLITVTPVYADGPGSPESIKAYLKQAPPSKGPTVRTKKVGKNEAVLEWDQLPVDVQNGFIRNYTIFYRTIIGNETAVNVDSSHTEYTLSSLTSDTLYMVRMAAYTDEGGKDGPEFTFTTPKFAQGEIESG
chain (part 2 of 2): HHHHHH
IL-6-dependent proliferation of XG-1 cells (recombinant human IL-6 [3]): 1000 fold molar excess over IL-6

B2: 125I-CNTF (ligand, UniProt P20294 1-200, looked up, species assumed)
Ciliary neurotrophic factor: MAFAEQTPLTLHRRDLCSRSIWLARKIRSDLTALMESYVKHQGLNKNINLDSVDGVPVASTDRWSEMTEAERLQENLQAYRTFQGMLTKLLEDQRVHFTPTEGDFHQAIHTLMLQVSAFAYQLEELMVLLEQKIPENEADGMPATVGDGGLFEKKLWGLKVLQELSQWTVRSIHDLRVISSHQMGISALESHYGAKDKQM
modifications: 125I label
Kd (CNTFRα on PC12D cells): 3.4 nM | Kd [4]: 0.009 nM

Other lines, results leading:

Kd (CNTFRα on EW-1 cells): 1 nM | Kd [1]: 0.01 nM
Molecule: CNTF (ligand)

IL-6-dependent proliferation of XG-1 cells (MTT assay) (fold molar excess over IL-6) (recombinant human IL-6 [2]): 10 | percent of the counts remaining associated after three days (human 125I-IL-6 (human)): < 5%
Molecule: anti-IL-6 monoclonal neutralizing antibody B-E8
